{"source": "paper doi:10.1101/2021.11.04.467353", "about": "“SHIP164 is a Chorein Motif Containing Lipid Transport Protein that Controls Membrane Dynamics and Traffic at the Endosome-Golgi Interface” (bioRxiv, 2021)", "proteins": {"B1": {"name": "3XFLAG-SHIP164^Δ901-1099 (natural protein)", "chain": "not shown", "notes": "SHIP164 (UHRF1BP1L), human, codon-optimised ORF from Genscript, lacking the predicted unstructured segment residues 901-1099; also called 3×FLAG-SHIP164_(Δ901-1099); UHRF1BP1L; source: Expi293F, transfected, purified (anti-FLAG M2 resin, Superdex 200 gel filtration); not shown: 3xFLAG, N-terminal, kept"}, "B2": {"name": "MBP-SHIP164 fusion (MBP fused to the N-terminus of SHIP164_(Δ901–1099)) (natural protein)", "chain": "not shown", "notes": "SHIP164 (UHRF1BP1L), human, codon-optimised ORF, lacking residues 901-1099; Probably expressed in Expi293F and purified like m1, and it may also carry a 3xFLAG tag"}}, "biological_target": "the molecule itself", "assay": "negative-stain electron microscopy; 2D class averages of negatively stained purified protein; 3XFLAG-SHIP164_(Δ901-1099) at 50 nM, 2% uranyl acetate; the MBP fusion locates the N-termini at the two ends of the rod", "data": [{"protein": "B1", "values": [{"measurement": "stoichiometry N", "value": 2}]}, {"protein": "B2", "values": [{"measurement": "stoichiometry N", "value": 2}]}]}
